These results are taken from patent US20220112295A1 (Novo Nordisk, published 2022).

Where a chain is given by its changes, count along the chain named.

First the molecules themselves.
T1: cyno CD30L LZ (cynomolgus monkey, UniProt A0A7N9CVX7 63-234)
T1 construct: extracellular domain; not shown: N-terminal isoleucine zipper motif
T1 sequence: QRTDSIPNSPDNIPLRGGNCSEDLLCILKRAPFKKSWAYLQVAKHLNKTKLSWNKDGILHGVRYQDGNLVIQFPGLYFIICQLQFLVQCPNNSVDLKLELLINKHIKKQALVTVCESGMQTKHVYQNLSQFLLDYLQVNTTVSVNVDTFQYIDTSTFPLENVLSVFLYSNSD

B1: Antibody E (antibody, V domains shown)
VH: QVQLQESGPRLVKPSETLSLTCTVSGGSITNNYWSWIRQPAGKGLEWIGRVYSSGLTNYKPSLKSRVTMSVDTSKNQFSLRLNSVTAADTAVYYCARERATVTTRYHYDGMDVWGQGTSVTVSS
VL: QSALTQPASVSGSPGQSITISCTGSSSDIGTYNYVSWYQQYPGKAPELMIYEVNNRPSGVSDRFSGSTSGNTASLTISGLQANDEADYYCSSYSSSSTWVFGGGTKLTVL
notes: also called mAb E
B2: Antibody A (antibody, V domains shown)
VH: QVQLQESGPGLVKPSETLSLTCTVSGGSISSYIWSWIRQPAGKGLEWIGRIYASGNTNYNPSLKSRVTMSVDTSKNQFSLKLSSMTAADTAVYYCARDYRVAGTYYYYYGLDVWGQGTTVTVSS
VL: QSALTQPASVSGSPGQSITISCTGTSSDVGVYDYVSWYQQHPGKAPKLMIYEVSNRPSGVSNRFSGSKSGNTASLTISGLQTEDEADYYCSSYTSRSTWVFGGGTKLTVL
notes: Human antibody (XenoMouse); also called mAb A; anti-hCD30L A
B3: Antibody F (antibody, V domains shown)
VH: QVQLQESGPGLVKPSETLSLTCTVSGGSISSYYWSWIRQPAGKGLEWIGRIFASGSTNYNPSLRSRVTMSRDTSKNQFSLKLSSVTAADTAVYYCAKERVGVQDYYHYSGMDVWGQGTTVTVSS
VL: B2 VL with V31L, D33N, H41Q, N55K, K68T, T82A, E83D, Y89S, R96S
notes: also called mAb F

For this test, the target named is T1, cyno CD30L LZ. As to the kind of experiment: blocking of cyno CD30L LZ binding to K299 cells (CD30). How it is done:
Anti-CD30L IgG antibodies were titrated into culture diluent (RPMI-1640 medium+10% heat-inactivated fetal bovine serum) and placed into round-bottomed 96-well microtiter plates (Costar® 96 well plate (Corning; Acton, Mass.) to give a range of final concentrations from luglmi to 10 pg/ml. As a positive control, a mouse anti-human CD30L monoclonal antibody was prepared as described in U.S. Pat. No. 5,480,981. The final volume of diluent and CD30L IgG was 100 μl/well. To each well was then added 50 µl of recombinant human CD30L isoleucine zipper ([…]). The huCD30L LZ construct consists of the extracellular domain of human CD30L (see U.S. Pat. No. 5,480,981) linked at its N-terminus to an isoleucine zipper motif modified by replacing the leucine residues with isoleucine residues. The single cell assay was also used to determine cyno cross-reactivity using a cyno CD30L LZ instead of the huCD30L LZ. CynoCD30L LZ was prepared as described for the human LZ molecule.
The plates were incubated for 45 minutes at room temperature. To each well was added 50 μl of K299 cells (4×10⁵ cells/ml). The plates were then incubated for 24 hours at 37° C. 5% CO₂.
The amount of IL-8 in the cell supernatants was determined by sandwich ELISA, using a CDCL8/IL-8 ELISA DuoSet kit according to the manufacturer's instructions (R&D Systems, Minneapolis, Minn.). IL-8 levels were interpolated from the ELISA standard curve using DeltaSoft 3 version 2.2 software (DeltaSoft, Inc. Hillsborough, N.J.). At results were expressed as the mean It standard error of the mean (SEM) for 3 replicate cultures calculated by GraphPad PRISM software v. 4.01 (GraphPad Software Inc., San Diego, Calif.) as were the IC₅₀ values. The IC₅₀ value derived using the huCD30L LZ for Antibody A1 was 2700 pM. The results using the cynoCD30L LZ can be found in Table 5.
In general, IC50 refers to the midpoint of a concentration-inhibition curve. Regarding B1, the half-maximal inhibitory concentration (IC50) came out at 1.3 nM. The same measure for B2: 1.4 nM; for B3: 0.45 nM.
